Laboratory results taken from paper PMC6526958.

Tests used:
[1] = substrate: Nc1ncnc2c1ncn2[C@@H]1O[C@H](COP(=O)(O)O)[C@@H](O)[C@H]1O; test: purified protein, by the assay type; format: biochemical, human; conditions: other: substrate AMP
[2] = substrate: Nc1ncnc2c1ncn2[C@@H]1O[C@H](COP(=O)(O)O)[C@@H](O)[C@H]1O; test: radiometric CD73 assay, membrane preparations of MDA-MB-231 cells; format: biochemical, human; conditions: other: substrate AMP; membrane preparation; 37.0 °C

| Protein | Km [1] | Km [2] |
| --- | --- | --- |
| recombinant soluble human CD73 (Homo sapiens) (protein) ELTILHTNDVHSRLEQTSEDSSKCVNASRCMGGVARLFTKVQQIRRAEPNVLLLDAGDQYQGTIWFTVYKGAEVAHFMNALRYDAMALGNHEFDNGVEGLIEPLLKEAKFPILSANIKAKGPLASQISGLYLPYKVLPVGDEVVGIVGYTSKETPFLSNPGTNLVFEDEITALQPEVDKLKTLNVNKIIALGHSGFEMDKLIAQKVRGVDVVVGGHSNTFLYTGNPPSKEVPAGKYPFIVTSDDGRKVPVVQAYAFGKYLGYLKIEFDERGNVISSHGNPILLNSSIPEDPSIKADINKWRIKLDNYSTQELGKTIVYLDGSSQSCRFRECNMGNLICDAMINNNLRHTDEMFWNHVSMCILNGGGIRSPIDERNNGTITWENLAAVLPFGGTFDLVQLKGSTLKKAFEHSVHRYGQSTGEFLQVGGIHVVYDLSRKPGDRVVKLDVLCTKCRVPSYDPLKMDEVYKVILPNFLANGGDGFQMIKDELLRHDSGDQDINVVSTYISKMKVIYPAVEGRIKFS | 17.0 ± 2.1 µM | – |
| membrane-bound CD73 (MDA-MB-231 membrane preparation) (Homo sapiens) (protein) WELTILHTNDVHSRLEQTSEDSSKCVNASRCMGGVARLFTKVQQIRRAEPNVLLLDAGDQYQGTIWFTVYKGAEVAHFMNALRYDAMALGNHEFDNGVEGLIEPLLKEAKFPILSANIKAKGPLASQISGLYLPYKVLPVGDEVVGIVGYTSKETPFLSNPGTNLVFEDEITALQPEVDKLKTLNVNKIIALGHSGFEMDKLIAQKVRGVDVVVGGHSNTFLYTGNPPSKEVPAGKYPFIVTSDDGRKVPVVQAYAFGKYLGYLKIEFDERGNVISSHGNPILLNSSIPEDPSIKADINKWRIKLDNYSTQELGKTIVYLDGSSQSCRFRECNMGNLICDAMINNNLRHTDEMFWNHVSMCILNGGGIRSPIDERNNGTITWENLAAVLPFGGTFDLVQLKGSTLKKAFEHSVHRYGQSTGEFLQVGGIHVVYDLSRKPGDRVVKLDVLCTKCRVPSYDPLKMDEVYKVILPNFLANGGDGFQMIKDELLRHDSGDQDINVVSTYISKMKVIYPAVEGRIKFSTGSHCHGSFSLIFLSLWAVIFVLYQ | – | 14.8 ± 2.1 µM |
